Results on 1 sequence are retold here after paper PMC12032115.

For this data set, the target named is PTPRF (UniProt P10586). Briefly: flow cytometry.
PTPRF, sequence (P10586 30-1907): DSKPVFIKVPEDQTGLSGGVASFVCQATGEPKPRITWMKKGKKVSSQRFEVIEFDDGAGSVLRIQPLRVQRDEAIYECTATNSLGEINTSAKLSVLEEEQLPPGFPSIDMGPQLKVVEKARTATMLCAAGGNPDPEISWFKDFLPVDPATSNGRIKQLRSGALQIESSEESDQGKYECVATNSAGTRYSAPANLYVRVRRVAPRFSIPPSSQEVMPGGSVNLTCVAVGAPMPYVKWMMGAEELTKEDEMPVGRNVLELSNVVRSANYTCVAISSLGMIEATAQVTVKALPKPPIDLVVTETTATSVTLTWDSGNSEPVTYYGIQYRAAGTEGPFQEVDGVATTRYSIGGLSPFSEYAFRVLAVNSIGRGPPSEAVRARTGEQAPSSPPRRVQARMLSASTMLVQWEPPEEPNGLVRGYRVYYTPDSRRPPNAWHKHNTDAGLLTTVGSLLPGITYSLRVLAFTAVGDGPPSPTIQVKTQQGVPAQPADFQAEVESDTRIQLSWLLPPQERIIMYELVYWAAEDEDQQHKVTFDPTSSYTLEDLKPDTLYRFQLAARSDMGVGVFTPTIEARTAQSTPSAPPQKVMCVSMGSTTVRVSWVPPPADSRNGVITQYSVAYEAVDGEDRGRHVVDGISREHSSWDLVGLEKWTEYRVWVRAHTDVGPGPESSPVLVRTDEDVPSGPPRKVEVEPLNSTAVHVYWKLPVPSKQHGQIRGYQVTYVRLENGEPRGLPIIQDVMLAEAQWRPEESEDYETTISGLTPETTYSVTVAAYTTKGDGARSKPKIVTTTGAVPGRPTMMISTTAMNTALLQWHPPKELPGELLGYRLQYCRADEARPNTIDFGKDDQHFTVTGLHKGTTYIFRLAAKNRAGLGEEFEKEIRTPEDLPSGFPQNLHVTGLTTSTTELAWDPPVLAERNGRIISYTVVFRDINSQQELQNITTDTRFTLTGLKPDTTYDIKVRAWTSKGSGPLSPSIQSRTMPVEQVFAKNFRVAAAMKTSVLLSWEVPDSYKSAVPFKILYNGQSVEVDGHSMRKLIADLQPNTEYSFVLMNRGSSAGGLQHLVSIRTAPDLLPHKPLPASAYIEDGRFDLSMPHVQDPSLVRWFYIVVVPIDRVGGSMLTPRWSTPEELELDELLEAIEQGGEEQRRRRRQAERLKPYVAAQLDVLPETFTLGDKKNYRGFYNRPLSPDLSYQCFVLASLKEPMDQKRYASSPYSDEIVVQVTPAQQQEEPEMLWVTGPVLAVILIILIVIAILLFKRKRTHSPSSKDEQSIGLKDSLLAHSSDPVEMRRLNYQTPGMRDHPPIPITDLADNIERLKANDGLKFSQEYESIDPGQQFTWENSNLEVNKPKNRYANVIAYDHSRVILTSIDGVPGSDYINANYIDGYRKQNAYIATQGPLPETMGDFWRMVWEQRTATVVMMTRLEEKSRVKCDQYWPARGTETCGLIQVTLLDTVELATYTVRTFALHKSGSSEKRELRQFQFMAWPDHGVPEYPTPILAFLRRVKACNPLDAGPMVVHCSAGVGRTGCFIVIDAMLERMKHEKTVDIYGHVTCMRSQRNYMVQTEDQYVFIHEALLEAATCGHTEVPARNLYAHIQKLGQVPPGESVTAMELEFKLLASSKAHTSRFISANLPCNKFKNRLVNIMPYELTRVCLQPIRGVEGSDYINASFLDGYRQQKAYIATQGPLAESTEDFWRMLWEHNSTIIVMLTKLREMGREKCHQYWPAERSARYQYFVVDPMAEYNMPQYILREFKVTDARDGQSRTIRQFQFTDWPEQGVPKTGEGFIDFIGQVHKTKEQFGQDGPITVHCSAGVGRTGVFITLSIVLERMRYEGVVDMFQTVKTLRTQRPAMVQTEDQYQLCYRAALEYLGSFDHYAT

Sequence “TGGAGGATATAGGTTGGCTTAGGTGGCTTTGCGTTGGGTGTGGTGCATATCCTCCA [ZAJ4a]” yielded a Kd of 23.3 nM.
